Assay results: article PMC5680108 (Cellular microbiology, 2017)
Where two headings read alike, the source gives them in different places.

Legend:
Assay in all cases: ELISA
[1] = biological target: complement component C4b, human (human) (UniProt P0C0L4)
[2] = biological target: T1, complement component C4b, human (human, UniProt P0C0L4 20-675; P0C0L4 757-1446; P0C0L4 1454-1744)
[3] = biological target: T1, complement component C4b, human; remark: listed apart in the source

T1 sequence (P0C0L4 20-675, chain 1 of 3): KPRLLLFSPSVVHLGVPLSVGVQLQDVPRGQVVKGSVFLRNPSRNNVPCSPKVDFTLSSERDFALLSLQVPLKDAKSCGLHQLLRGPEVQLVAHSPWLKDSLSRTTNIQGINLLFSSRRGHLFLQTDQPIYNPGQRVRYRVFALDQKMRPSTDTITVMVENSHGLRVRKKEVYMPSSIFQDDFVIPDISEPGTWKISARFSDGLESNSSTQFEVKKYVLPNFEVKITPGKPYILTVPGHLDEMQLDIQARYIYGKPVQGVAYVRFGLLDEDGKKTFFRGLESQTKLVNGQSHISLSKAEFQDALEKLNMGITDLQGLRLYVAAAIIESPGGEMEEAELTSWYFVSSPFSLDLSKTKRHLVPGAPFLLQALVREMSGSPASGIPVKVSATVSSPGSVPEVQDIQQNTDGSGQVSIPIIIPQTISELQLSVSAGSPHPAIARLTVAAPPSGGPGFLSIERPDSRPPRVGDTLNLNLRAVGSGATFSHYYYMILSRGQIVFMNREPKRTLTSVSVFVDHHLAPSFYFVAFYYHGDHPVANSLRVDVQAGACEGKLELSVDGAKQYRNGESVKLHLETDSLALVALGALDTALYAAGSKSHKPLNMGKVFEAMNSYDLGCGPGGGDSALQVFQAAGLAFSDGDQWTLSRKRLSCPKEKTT
T1 sequence (P0C0L4 757-1446, chain 2 of 3): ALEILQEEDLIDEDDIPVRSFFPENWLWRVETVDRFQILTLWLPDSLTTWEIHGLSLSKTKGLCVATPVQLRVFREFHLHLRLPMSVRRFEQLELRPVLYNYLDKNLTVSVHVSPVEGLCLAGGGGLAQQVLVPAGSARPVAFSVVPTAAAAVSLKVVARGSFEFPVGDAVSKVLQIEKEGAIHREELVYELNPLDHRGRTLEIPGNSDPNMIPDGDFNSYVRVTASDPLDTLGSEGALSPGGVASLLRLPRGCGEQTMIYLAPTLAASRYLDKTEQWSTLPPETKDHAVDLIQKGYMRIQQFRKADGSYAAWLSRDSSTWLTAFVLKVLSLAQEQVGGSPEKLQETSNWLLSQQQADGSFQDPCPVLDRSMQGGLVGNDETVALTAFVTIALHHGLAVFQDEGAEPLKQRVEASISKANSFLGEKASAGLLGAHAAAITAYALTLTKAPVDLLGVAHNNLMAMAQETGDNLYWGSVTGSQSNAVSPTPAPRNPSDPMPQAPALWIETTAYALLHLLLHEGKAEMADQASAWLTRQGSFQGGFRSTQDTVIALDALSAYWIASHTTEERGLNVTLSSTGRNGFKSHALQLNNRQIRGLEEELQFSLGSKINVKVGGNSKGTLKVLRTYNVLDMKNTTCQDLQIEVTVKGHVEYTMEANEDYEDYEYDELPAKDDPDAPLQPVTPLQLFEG
T1 sequence (P0C0L4 1454-1744, chain 3 of 3): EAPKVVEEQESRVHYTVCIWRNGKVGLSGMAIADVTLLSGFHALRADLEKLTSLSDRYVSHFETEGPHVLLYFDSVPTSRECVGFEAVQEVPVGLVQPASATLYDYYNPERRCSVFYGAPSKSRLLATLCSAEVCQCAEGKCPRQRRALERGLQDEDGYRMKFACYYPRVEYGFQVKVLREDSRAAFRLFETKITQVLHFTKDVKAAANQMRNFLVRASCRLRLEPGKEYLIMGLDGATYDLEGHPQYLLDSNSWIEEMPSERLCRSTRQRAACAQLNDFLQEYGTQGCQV
Sequence of complement component C4b, human (human) (P0C0L4 20-675, chain 1 of 3): as the sequence (P0C0L4 20-675, chain 1 of 3) above
Sequence of complement component C4b, human (human) (P0C0L4 757-1446, chain 2 of 3): as the sequence (P0C0L4 757-1446, chain 2 of 3) above
Sequence of complement component C4b, human (human) (P0C0L4 1454-1744, chain 3 of 3): as the sequence (P0C0L4 1454-1744, chain 3 of 3) above

## GST-tagged OspC from B. burgdorferi strain N40 clone D10/E9 (natural protein)
[1]
  Kd: 233 nM

B1: GST-OspCB31, GST fused to OspC from B. burgdorferi strain B31-A3 (natural protein)
chain: CNNSGKDGNTSANSADESVKGPNLTEISKKITDSNAVLLAVKEVEALLSSIDEIAAKAIGKKIHQNNGLDTENNHNGSLLAGAYAISTLIKQKLDGLKNEGLKEKIDAAKKCSETFTNKLKEKHTDLGKEGVTDADAKEAILKTNGTKTKGAEELGKLFESVEVLSKAAKEMLANSVKELTSPVVAESPKKP
[2]
  Kd: ~414 nM
[3]
  Kd: 476 nM
